Reference: patent US20220249369

Tests used:
[1] = tested on: T1, CC9, 5FAM-GLQRALEI-K(CPQ2)-k-C
T1 sequence: GLQRALEIKKC

[2] = tested on: T2, CC6, 5FAM-KYLGRSYKV-K(CPQ2)-C
T2 sequence: KYLGRSYKVKC

KTTGGRIYGG = tested on: T3, KTTGGRIYGG
T3 sequence: KTTGGRIYGG

QARGGSK = tested on: T4, QARGGSK
T4 sequence: QARGGSK

Plasmin, sequence (P00747 20-580): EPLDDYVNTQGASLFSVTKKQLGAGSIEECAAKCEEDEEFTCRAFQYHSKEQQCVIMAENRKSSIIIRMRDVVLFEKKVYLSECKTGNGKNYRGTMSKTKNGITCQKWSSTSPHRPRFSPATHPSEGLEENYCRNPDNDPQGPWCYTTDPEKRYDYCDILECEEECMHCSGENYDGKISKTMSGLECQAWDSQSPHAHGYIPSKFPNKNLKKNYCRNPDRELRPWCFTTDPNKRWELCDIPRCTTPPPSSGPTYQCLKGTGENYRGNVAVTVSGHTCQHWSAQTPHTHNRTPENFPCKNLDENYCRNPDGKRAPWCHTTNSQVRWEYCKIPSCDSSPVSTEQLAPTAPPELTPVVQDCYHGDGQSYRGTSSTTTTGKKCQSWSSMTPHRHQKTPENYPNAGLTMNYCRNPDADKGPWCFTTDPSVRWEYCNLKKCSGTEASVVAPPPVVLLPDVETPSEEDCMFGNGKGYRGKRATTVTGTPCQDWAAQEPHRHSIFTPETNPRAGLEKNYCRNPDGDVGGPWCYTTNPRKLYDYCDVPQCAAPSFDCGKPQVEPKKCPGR
Plasmin, sequence (P00747 581-810): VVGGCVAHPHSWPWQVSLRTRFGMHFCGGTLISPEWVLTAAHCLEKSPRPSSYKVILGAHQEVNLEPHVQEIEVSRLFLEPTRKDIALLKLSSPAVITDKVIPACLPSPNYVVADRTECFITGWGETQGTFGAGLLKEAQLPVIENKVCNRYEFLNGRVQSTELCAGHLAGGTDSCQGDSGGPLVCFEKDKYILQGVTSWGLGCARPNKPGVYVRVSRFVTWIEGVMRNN

Substance | relative cleavage velocity (state 0 probability) after the first U-gate [1] | relative cleavage velocity (state 0 probability) after the second U-gate (state 0 substrate in large molar excess) [1] | relative cleavage velocity (L-gate) [2] | relative cleavage velocity (state 1 probability) after the first U-gate [2] | protease cleavage velocity (KTTGGRIYGG) | protease cleavage velocity (QARGGSK)
Plasmin | 45% | 93% | adding substrate-1 (KYLGRSYKV (SEQ ID NO:5)) to control b0 (e.g., plasmin) and target bi (e.g., thrombin) at a concentration such that the relative cleavage velocities (rcv) were matched | 55% | – | –
Thrombin | – | – | adding substrate-1 (KYLGRSYKV (SEQ ID NO:5)) to control b0 (e.g., plasmin) and target bi (e.g., thrombin) at a concentration such that the relative cleavage velocities (rcv) were matched | – | thrombin cleaving two different peptide substrates (KTTGGRIYGG (SEQ ID NO:2) and QARGGSK (SEQ ID NO:3)) | thrombin cleaving two different peptide substrates (KTTGGRIYGG (SEQ ID NO:2) and QARGGSK (SEQ ID NO:3))
